From publication PMC6385209

Assay: mouse vaccination, whole-cell ELISA for CPS14-specific IgG
Conditions: glycan gained; control: unglycosylated ComP

Substance: ComP: CPS14-ComP bioconjugate
- other: immunogenicity: increases
